Laboratory results taken from paper PMC11090158.

Molecular target: GST-tag DNA polymerase (pol) β, wild-type (human) (UniProt P06746)
Experiment: SPR

- Kd: 2.7 µM
Substance: X-ray cross-complementing protein 1 (XRCC1) V86R, 6x-his tag (from UniProt P18887 1-633) (natural protein)
